Measurements as given in the supplement of paper PMC7877785.
± gives the uncertainty stated by the source.

Assay: self-splicing fitness, log relative to wild type (ln ratio); higher = more splicing; Tetrahymena group I intron in knt gene, E. coli kanamycin selection, DiMSum; sequences stand for … in CUCUCU…GGAGGGAAAAGUUAUCAGGCAUGCACCUGGUAGCUAGUCUUUAAACCAAUAGAUUGCAUCGGUUUAAAAGGCAAGACCGUCAAAUUGCGGGAAAGGGGUCAACAGCCGUUCAGUACCAAGUCUCAGGGGAAACUUUGAGAUGGCCUUGCAAAGGGUAUGGUAAUAAGCUGACGGACAUGGUCCUAACCACGCAGCCAAGUCCUAAGUCAACAGAUCUUCUGUUGAUAUGGAUGCAGUUCACAGACUAAAUGUCGGUCGGGGAAGAUGUAUUCUUCUCAUAAGAUAUAGUCGGACCUCUCCUUAAUGGGAGCUAGCGGAUGAAGUGAUGCAACACUGGAGCCGCUGGGAACUAAUUUGUAUGCGAAAGUAUAUUGAUUAGUUUUGGAGUACUCGUGGUCG
In short: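 A randomised library covering all eight P1ex-region intron nucleotides was built with the intron in the knt kanamycin-resistance gene on pET-22b(+) and held in E. coli BL21(DE3). Cells were grown overnight at 37°C or 30°C on LB agar, with or without 25 μg/mL kanamycin, plus 100 μg/mL carbenicillin, 50 μM IPTG and 0.2% rhamnose, and pooled colonies were amplicon-sequenced on an Illumina HiSeq 2500. DiMSum fitness is the error-weighted combination of wild-type-normalised replicate fold changes, kanamycin versus none.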

GAGCAGCAAUAUUACGCGGC
self-splicing fitness (ln) (30 °C): -3.97 ± 0.25
self-splicing fitness (ln) (37 °C): -1.87 ± 0.14

GAGCAGCAAUAUUACGGAUA
self-splicing fitness (ln) (30 °C): -2.15 ± 0.22
self-splicing fitness (ln) (37 °C): -2.11 ± 0.26

GAGCAGCAAUAUUACGGCAG
self-splicing fitness (ln) (30 °C): -2.34 ± 0.16
self-splicing fitness (ln) (37 °C): -1.69 ± 0.19

GAGCAGCAAUAUUACGGCCU
self-splicing fitness (ln) (30 °C): -0.475 ± 0.07
self-splicing fitness (ln) (37 °C): -0.0538 ± 0.081

GAGCAGCAAUAUUACGGCUG
self-splicing fitness (ln) (30 °C): -3.87 ± 0.26
self-splicing fitness (ln) (37 °C): -2.51 ± 0.28

GAGCAGCAAUAUUACGGCUU
self-splicing fitness (ln) (30 °C): -4.43 ± 0.33
self-splicing fitness (ln) (37 °C): -2.53 ± 0.27

GAGCAGCAAUAUUACGGGAU
self-splicing fitness (ln) (30 °C): -3.27 ± 0.27
self-splicing fitness (ln) (37 °C): -3.1 ± 0.23

GAGCAGCAAUAUUACGGUAA
self-splicing fitness (ln) (30 °C): -1.95 ± 0.13
self-splicing fitness (ln) (37 °C): -0.00417 ± 0.12

GAGCAGCAAUAUUACGGUUU
self-splicing fitness (ln) (30 °C): -3.11 ± 0.17
self-splicing fitness (ln) (37 °C): -1.84 ± 0.19

GAGCAGCAAUAUUACGUGAA
self-splicing fitness (ln) (30 °C): -0.549 ± 0.079
self-splicing fitness (ln) (37 °C): -0.526 ± 0.13

GAGCAGCAAUAUUACGUUCG
self-splicing fitness (ln) (30 °C): -1.51 ± 0.097
self-splicing fitness (ln) (37 °C): -0.474 ± 0.098

GAGCAGCAAUAUUACGUUGC
self-splicing fitness (ln) (30 °C): -4.45 ± 0.34
self-splicing fitness (ln) (37 °C): -3.41 ± 0.23

GAGCAGCAAUAUUACGUUUA
self-splicing fitness (ln) (30 °C): -1.17 ± 0.092
self-splicing fitness (ln) (37 °C): -1 ± 0.097

GAGCAGCAAUAUUACGUUUU
self-splicing fitness (ln) (30 °C): -2.63 ± 0.092
self-splicing fitness (ln) (37 °C): -2.3 ± 0.12

GAGGAGCAAUAUUACGAAGG
self-splicing fitness (ln) (30 °C): -4.59 ± 0.46
self-splicing fitness (ln) (37 °C): -2.39 ± 0.27

GAGGAGCAAUAUUACGACGA
self-splicing fitness (ln) (30 °C): -1.2 ± 0.13
self-splicing fitness (ln) (37 °C): 0.494 ± 0.13

GAGGAGCAAUAUUACGAGAC
self-splicing fitness (ln) (30 °C): -2.67 ± 0.22

GAGGAGCAAUAUUACGAUUU
self-splicing fitness (ln) (30 °C): -1.07 ± 0.1
self-splicing fitness (ln) (37 °C): -0.084 ± 0.13

GAGGAGCAAUAUUACGCAGC
self-splicing fitness (ln) (37 °C): -1.04 ± 0.44

GAGGAGCAAUAUUACGCAUU
self-splicing fitness (ln) (30 °C): -2.99 ± 0.43
self-splicing fitness (ln) (37 °C): -0.645 ± 0.33

GAGGAGCAAUAUUACGCCGG
self-splicing fitness (ln) (30 °C): -3.44 ± 0.48
self-splicing fitness (ln) (37 °C): -2.68 ± 0.36

GAGGAGCAAUAUUACGCGUC
self-splicing fitness (ln) (37 °C): -1.75 ± 0.38

GAGGAGCAAUAUUACGGAGA
self-splicing fitness (ln) (30 °C): -2.95 ± 0.2
self-splicing fitness (ln) (37 °C): -2.25 ± 0.27

GAGGAGCAAUAUUACGGCAC
self-splicing fitness (ln) (30 °C): -2.08 ± 0.19
self-splicing fitness (ln) (37 °C): -1.64 ± 0.19

GAGGAGCAAUAUUACGGGGA
self-splicing fitness (ln) (30 °C): -1.86 ± 0.23
self-splicing fitness (ln) (37 °C): -3.17 ± 0.4

GAGGAGCAAUAUUACGUCCA
self-splicing fitness (ln) (30 °C): -1.23 ± 0.12
self-splicing fitness (ln) (37 °C): -0.83 ± 0.16

GAGGAGCAAUAUUACGUCCG
self-splicing fitness (ln) (30 °C): -2.52 ± 0.24
self-splicing fitness (ln) (37 °C): -2.24 ± 0.31

GAGGAGCAAUAUUACGUGGA
self-splicing fitness (ln) (30 °C): -3.86 ± 0.32
self-splicing fitness (ln) (37 °C): -2.98 ± 0.29

GAGGAGCAAUAUUACGUUAG
self-splicing fitness (ln) (30 °C): -4 ± 0.27
self-splicing fitness (ln) (37 °C): -1.93 ± 0.27

GAGGAGCAAUAUUACGUUUA
self-splicing fitness (ln) (30 °C): -1.89 ± 0.26
self-splicing fitness (ln) (37 °C): -1.84 ± 0.32

GAGUAGCAAUAUUACGAACA
self-splicing fitness (ln) (37 °C): -1.28 ± 0.34

GAGUAGCAAUAUUACGAGAG
self-splicing fitness (ln) (30 °C): -3.63 ± 0.24
self-splicing fitness (ln) (37 °C): -3.64 ± 0.27

GAGUAGCAAUAUUACGAUCG
self-splicing fitness (ln) (30 °C): -1.06 ± 0.11
self-splicing fitness (ln) (37 °C): -0.986 ± 0.12

GAGUAGCAAUAUUACGAUGC
self-splicing fitness (ln) (30 °C): -1.79 ± 0.23
self-splicing fitness (ln) (37 °C): -0.495 ± 0.26

GAGUAGCAAUAUUACGCAAC
self-splicing fitness (ln) (30 °C): -3.77 ± 0.37
self-splicing fitness (ln) (37 °C): -2.66 ± 0.36

GAGUAGCAAUAUUACGCAGC
self-splicing fitness (ln) (37 °C): -2.81 ± 0.34

GAGUAGCAAUAUUACGCGCU
self-splicing fitness (ln) (37 °C): -0.5 ± 0.39

GAGUAGCAAUAUUACGCGUC
self-splicing fitness (ln) (30 °C): -1.36 ± 0.21
self-splicing fitness (ln) (37 °C): -1.26 ± 0.22

GAGUAGCAAUAUUACGCUUU
self-splicing fitness (ln) (30 °C): -3.16 ± 0.32
self-splicing fitness (ln) (37 °C): -1.39 ± 0.23

GAGUAGCAAUAUUACGGAAC
self-splicing fitness (ln) (30 °C): -3.8 ± 0.34
self-splicing fitness (ln) (37 °C): -1.79 ± 0.22

GAGUAGCAAUAUUACGGACC
self-splicing fitness (ln) (30 °C): -1.29 ± 0.21
self-splicing fitness (ln) (37 °C): -0.248 ± 0.22

GAGUAGCAAUAUUACGGCUU
self-splicing fitness (ln) (30 °C): -2.2 ± 0.12
self-splicing fitness (ln) (37 °C): -1.78 ± 0.15

GAGUAGCAAUAUUACGGGCC
self-splicing fitness (ln) (30 °C): -2.52 ± 0.15
self-splicing fitness (ln) (37 °C): -1.32 ± 0.13

GAGUAGCAAUAUUACGGUAU
self-splicing fitness (ln) (30 °C): -2.6 ± 0.13
self-splicing fitness (ln) (37 °C): -2.22 ± 0.2

GAGUAGCAAUAUUACGUACA
self-splicing fitness (ln) (30 °C): -0.962 ± 0.2
self-splicing fitness (ln) (37 °C): -0.303 ± 0.18

GAGUAGCAAUAUUACGUCAA
self-splicing fitness (ln) (30 °C): -2.1 ± 0.19
self-splicing fitness (ln) (37 °C): -1.8 ± 0.23

GAGUAGCAAUAUUACGUUUU
self-splicing fitness (ln) (30 °C): -2.6 ± 0.22
self-splicing fitness (ln) (37 °C): -2.12 ± 0.24

GAUAAGCAAUAUUACGAAGU
self-splicing fitness (ln) (30 °C): -2.4 ± 0.18
self-splicing fitness (ln) (37 °C): -1.15 ± 0.23

GAUAAGCAAUAUUACGAAUA
self-splicing fitness (ln) (30 °C): -2.53 ± 0.22
self-splicing fitness (ln) (37 °C): -1.58 ± 0.3

GAUAAGCAAUAUUACGACGC
self-splicing fitness (ln) (30 °C): 0.303 ± 0.055
self-splicing fitness (ln) (37 °C): -0.0161 ± 0.063

GAUAAGCAAUAUUACGAGGG
self-splicing fitness (ln) (30 °C): -4.01 ± 0.39
self-splicing fitness (ln) (37 °C): -2.19 ± 0.24

GAUAAGCAAUAUUACGAUAG
self-splicing fitness (ln) (30 °C): -1.66 ± 0.15
self-splicing fitness (ln) (37 °C): -1.95 ± 0.2

GAUAAGCAAUAUUACGAUGG
self-splicing fitness (ln) (30 °C): -3.06 ± 0.31
self-splicing fitness (ln) (37 °C): -0.54 ± 0.21

GAUAAGCAAUAUUACGCACA
self-splicing fitness (ln) (30 °C): -0.364 ± 0.14
self-splicing fitness (ln) (37 °C): 0.39 ± 0.18

GAUAAGCAAUAUUACGCGAA
self-splicing fitness (ln) (30 °C): -2.31 ± 0.093
self-splicing fitness (ln) (37 °C): -1.65 ± 0.11

GAUAAGCAAUAUUACGCGAU
self-splicing fitness (ln) (37 °C): -2.82 ± 0.26

GAUAAGCAAUAUUACGCGGA
self-splicing fitness (ln) (30 °C): -3.54 ± 0.22
self-splicing fitness (ln) (37 °C): -0.761 ± 0.12

GAUAAGCAAUAUUACGCUAA
self-splicing fitness (ln) (30 °C): -2.41 ± 0.24
self-splicing fitness (ln) (37 °C): -2.28 ± 0.32

GAUAAGCAAUAUUACGCUCG
self-splicing fitness (ln) (30 °C): -0.655 ± 0.15
self-splicing fitness (ln) (37 °C): 0.0364 ± 0.17

GAUAAGCAAUAUUACGGAGA
self-splicing fitness (ln) (30 °C): -3.48 ± 0.36
self-splicing fitness (ln) (37 °C): -2.78 ± 0.24

GAUAAGCAAUAUUACGGCGG
self-splicing fitness (ln) (30 °C): -2.27 ± 0.12
self-splicing fitness (ln) (37 °C): -1.32 ± 0.13

GAUAAGCAAUAUUACGGCUG
self-splicing fitness (ln) (30 °C): -0.569 ± 0.067
self-splicing fitness (ln) (37 °C): 0.0614 ± 0.1

GAUAAGCAAUAUUACGGUGG
self-splicing fitness (ln) (30 °C): -2.85 ± 0.23
self-splicing fitness (ln) (37 °C): -2.24 ± 0.2

GAUAAGCAAUAUUACGGUUU
self-splicing fitness (ln) (30 °C): -1.22 ± 0.056
self-splicing fitness (ln) (37 °C): -0.908 ± 0.069

GAUAAGCAAUAUUACGUCAC
self-splicing fitness (ln) (37 °C): -1.86 ± 0.27

GAUAAGCAAUAUUACGUUUG
self-splicing fitness (ln) (30 °C): -2.07 ± 0.17
self-splicing fitness (ln) (37 °C): -1.92 ± 0.17

GAUCAGCAAUAUUACGAACA
self-splicing fitness (ln) (30 °C): 0.0135 ± 0.15
self-splicing fitness (ln) (37 °C): 0.0485 ± 0.15

GAUCAGCAAUAUUACGACAA
self-splicing fitness (ln) (30 °C): -0.267 ± 0.081
self-splicing fitness (ln) (37 °C): -0.396 ± 0.089

GAUCAGCAAUAUUACGACUG
self-splicing fitness (ln) (30 °C): -1.21 ± 0.082
self-splicing fitness (ln) (37 °C): -0.166 ± 0.13

GAUCAGCAAUAUUACGAGUA
self-splicing fitness (ln) (30 °C): -1.2 ± 0.12
self-splicing fitness (ln) (37 °C): -0.817 ± 0.092

GAUCAGCAAUAUUACGAUAU
self-splicing fitness (ln) (30 °C): -0.637 ± 0.08
self-splicing fitness (ln) (37 °C): 0.658 ± 0.11

GAUCAGCAAUAUUACGAUUA
self-splicing fitness (ln) (30 °C): -0.622 ± 0.086
self-splicing fitness (ln) (37 °C): 0.0655 ± 0.1

GAUCAGCAAUAUUACGCAGC
self-splicing fitness (ln) (30 °C): -1.64 ± 0.11
self-splicing fitness (ln) (37 °C): -0.448 ± 0.13

GAUCAGCAAUAUUACGCUAA
self-splicing fitness (ln) (30 °C): -1.11 ± 0.12
self-splicing fitness (ln) (37 °C): -0.316 ± 0.15

GAUCAGCAAUAUUACGCUCU
self-splicing fitness (ln) (30 °C): -1.3 ± 0.12
self-splicing fitness (ln) (37 °C): -0.735 ± 0.15

GAUCAGCAAUAUUACGGCCG
self-splicing fitness (ln) (30 °C): -0.635 ± 0.13
self-splicing fitness (ln) (37 °C): -0.245 ± 0.14

GAUCAGCAAUAUUACGUAAU
self-splicing fitness (ln) (30 °C): -0.0684 ± 0.098
self-splicing fitness (ln) (37 °C): -0.341 ± 0.13
